Assay results published in patent publication US20240076353A1.

Molecular target: IL-15R β protein
Assay: BLI (Octet-RED); IL-15R β immobilized on Ni-NTA biosensors, serial dilutions of the complex as analyte, global 1:1 fit

Chain of IL-15R β protein (P14784 27-240): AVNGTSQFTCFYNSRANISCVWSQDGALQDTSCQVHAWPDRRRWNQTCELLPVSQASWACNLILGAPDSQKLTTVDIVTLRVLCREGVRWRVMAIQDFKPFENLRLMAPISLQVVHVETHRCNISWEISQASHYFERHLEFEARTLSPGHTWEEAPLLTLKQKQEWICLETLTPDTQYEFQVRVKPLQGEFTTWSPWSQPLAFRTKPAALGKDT

Kd: 3.9 nM
koff: 0.000235 s⁻¹
kon: 60400 M⁻¹ s⁻¹
Substance: ALT803 (Fc fusion)
